In this series the target is T1, His-E1 (Glycine max, UniProt I2FKG6 1-174).
T1 sequence: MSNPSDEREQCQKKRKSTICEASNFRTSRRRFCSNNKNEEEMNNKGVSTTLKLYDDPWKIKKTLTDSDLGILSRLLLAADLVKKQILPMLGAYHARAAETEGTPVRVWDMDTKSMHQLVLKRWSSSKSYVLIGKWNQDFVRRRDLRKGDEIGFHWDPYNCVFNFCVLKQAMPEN
The experiment in a line: EMSA. On the technique in general: In EMSA bound probe runs differently from free probe, usually more slowly.

B1: GmMDE06 Probe2 (dsDNA)
DNA 1: GAATCAAGGGGTGAGACTCACGGTCATGACTCATGTAAATTCGTCTCCCA
DNA 2: TGGGAGACGAATTTACATGAGTCATGACCGTGAGTCTCACCCCTTGATTC
Regarding B1, the binding result was “binds”.

B2: Probe4 (dsDNA)
DNA 1: AGTCTTTGTTCTTACATGAGAAACACATGTATTTTTTTTATAGACATTAT
DNA 2: ATAATGTCTATAAAAAAAATACATGTGTTTCTCATGTAAGAACAAAGACT
For B2, the binding result is listed as “binds”.

B3: Probe3 (dsDNA)
DNA 1: AGTTGATCAGCCCGAAATACTGCATGCACCTCACAAATTGACAAGTGCTT
DNA 2: AAGCACTTGTCAATTTGTGAGGTGCATGCAGTATTTCGGGCTGATCAACT
For B3, the binding result is listed as “binds”.

B4: GmMDE06 Probe1 (dsDNA)
DNA 1: TAAAGTATAAGTTTACTAATGGAGTCCATGAGTTAAATTTATAAAACTCT
DNA 2: AGAGTTTTATAAATTTAACTCATGGACTCCATTAGTAAACTTATACTTTA
For the molecule B4, the binding result is on record as “binds”.

B5: GsWRKY20 Probe5 (dsDNA)
DNA 1: TTTTTAATTTGTTAACTCGTTGACTCAGTGGTAAACTCGAAAGTC
DNA 2: GACTTTCGAGTTTACCACTGAGTCAACGAGTTAACAAATTAAAAA
In the case of B5, the binding result is given as “binds”.

Source of the values: paper PMC9157081.
